According to patent US20160145352A1 (INSTITUT NATIONAL DE LA RECHERCHE AGRONOMIQUE, published 2016):

What was measured:
[1] = target: H2B histone in the monomeric state (HPLC-purified fraction) (human, UniProt P62807 2-126); assay: immunoblot on HPLC-purified histones, VHH-HA plus anti-HA, HRP/ECL
Method: (§1) After blocking in TBS-T (Tris buffered saline, 0.1% Tween® 20), 5% skimmed milk, the membrane is incubated for 1 h in a dilution of the VHH-HA polypeptide (5 μg/ml) combined with an anti-HA antibody (HA-11 mouse monoclonal 16B12 from Covance) diluted to 1 μg/ml in TBS-T, 5% skimmed milk. The membranes are also probed with the anti-H2AX (Epitomics clone EPR895) and anti-γH2AX (Millipore) monoclonal antibodies. After 3 washes in TBS-T, the blot is incubated with the anti-mouse secondary antibody coupled to horseradish peroxidase (HRP) (Cell Signaling), then washed 3 times for 10 min. Visualization is carried out with an ECL substrate (Enhanced Chemiluminescence West Dura Thermo scientific). The chemiluminescence photon emission is captured by a camera (G-Box Syngene).
(§2) To this effect, the proteins of the fractions thus obtained, in particular of the fractions containing H2A, H2B and H3, and also a mixture of the H2A and H2B fractions, are separated by electrophoresis in a denaturing polyacrylamide gel (NuPage® Bis Tris, Life Technologies), then transferred onto a nitrocellulose membrane. The visualization is carried out according to the protocol described above.

[2] = target: H3 histone (HPLC-purified fraction) (human, UniProt P68431 2-136); assay: as above
Method: as §1, §2

[3] = target: H4 histone (in total histones acid-extracted from HT1080 human cells) (human, UniProt P62805 2-103); assay: immunoblot on acid-extracted total histones of HT1080 cells, overlaid on Ponceau red staining

Measured: binding result

B1: C76-HA polypeptide (VHH C76 fused to the HA tag) (VHH)
VHH: QVQLQASGGGLVQAGGSLRLSCAVSGGTLSSYTMGWFRQAPGKEREFVSALSRVGGKSDYADSVKGRFTISRNAKNTVYLQMNSLKPEDTAVYYCAAGGYSRRWSAYNYWGQGTQVTVS
notes: Secreted into E. coli culture medium from pHEN4-VHH; also called C75-HA (as printed in Experiment 2); VHH-HA; not shown: HA tag from the pHEN4 vector
no binding (tested: 5 µg/ml): [1] | [2] | [3]

B2: S2-HA polypeptide (VHH S2 fused to the HA tag) (VHH)
VHH: QVQLQASGGGLVQAGDSLRLSCAAAGRSFSSYAMGWFRQAPGKEREFVAAISRSRGVTYADSVKGRFTISKDNVKNMAYLQMNSLKPEDTGVYYCAATSSGSTRQLSTGRSNYWGQGTQVTVS
notes: Secreted into E. coli culture medium from pHEN4-VHH; it calls it the VHH domain; also called VHH-HA; not shown: HA tag from the pHEN4 vector
no binding (tested: 5 µg/ml): [1] | [2] | [3]

B3: C25-HA polypeptide (VHH C25 fused to the HA tag) (VHH)
VHH: QVQLQASGGGLVQAGESLTLSCDASGRTFSIGAMGWFRQAPGKEREFLAAINWNGGYTSYADVASGRFTISRNAKNTVYLQMNSLQPEDTAVYYCAAKYGGSARSRTYDYWGQGTQVTVS
notes: Secreted into E. coli culture medium from pHEN4-VHH; also called VHH-HA; not shown: HA tag from the pHEN4 vector
no binding (tested: 5 µg/ml): [1] | [2] | [3]
